Data set [1] has as its system Uroporphyrinogen decarboxylase (Gallus gallus). Nature of the data set: Activity at chicken red cell hemolysate URO-D assessed as product formation after 150 mins.
In data set [2] the target is T1, Oxygen-dependent coproporphyrinogen-III oxidase, mitochondrial (Homo sapiens) (UniProt P36551).
T1 sequence (whole entry): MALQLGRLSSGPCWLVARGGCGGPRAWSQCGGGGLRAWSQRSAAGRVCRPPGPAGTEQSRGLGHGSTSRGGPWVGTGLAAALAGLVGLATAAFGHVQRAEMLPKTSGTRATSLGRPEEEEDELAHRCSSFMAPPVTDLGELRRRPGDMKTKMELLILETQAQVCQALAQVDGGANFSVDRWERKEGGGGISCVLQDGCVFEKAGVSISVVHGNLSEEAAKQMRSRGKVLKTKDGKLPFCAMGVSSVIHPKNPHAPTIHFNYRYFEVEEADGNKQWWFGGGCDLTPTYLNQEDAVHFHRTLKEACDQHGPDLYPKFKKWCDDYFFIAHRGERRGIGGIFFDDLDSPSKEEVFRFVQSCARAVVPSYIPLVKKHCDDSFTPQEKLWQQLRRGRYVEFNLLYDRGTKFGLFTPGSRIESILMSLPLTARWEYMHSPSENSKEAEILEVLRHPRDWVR
Nature of the data set: Activity at recombinant human CPO assessed as product formation after 30 mins.

Substrate in data set [3]: Cc1c2[nH]c(c1CCC(=O)O)Cc1[nH]c(c(CCC(=O)O)c1C)Cc1[nH]c(c(CCCC(=O)O)c1C)Cc1[nH]c(c(C)c1CCCC(=O)O)C2
Nature of the data set: (§1) Activity at recombinant human CPO.

Substrate in data set [4]: Cc1c2[nH]c(c1CCC(=O)O)Cc1[nH]c(c(CCC(=O)O)c1C)Cc1[nH]c(c(CC(=O)O)c1C)Cc1[nH]c(c(C)c1CC(=O)O)C2
The description is as §1.

Substrate in data set [5]: Cc1c2[nH]c(c1CCC(=O)O)Cc1[nH]c(c(CCC(=O)O)c1C)Cc1[nH]c(c(CCC(=O)O)c1C)Cc1[nH]c(c(C)c1CCC(=O)O)C2
The description is as §1.

In general, Km refers to the concentration of substrate that gives half-maximal velocity.

As to `Cc1c2[nH]c(c1CCC(=O)O)Cc1[nH]c(c(CCC(=O)O)c1C)Cc1[nH]c(c(CC(=O)O)c1C)Cc1[nH]c(c(C)c1CC(=O)O)C2`, the Activity in data set [1] came out at 49.5%; in data set [2] it was 35.7%.

B1: Oxygen-dependent coproporphyrinogen-III oxidase, mitochondrial (Homo sapiens), P36551 (protein)
chain: MALQLGRLSSGPCWLVARGGCGGPRAWSQCGGGGLRAWSQRSAAGRVCRPPGPAGTEQSRGLGHGSTSRGGPWVGTGLAAALAGLVGLATAAFGHVQRAEMLPKTSGTRATSLGRPEEEEDELAHRCSSFMAPPVTDLGELRRRPGDMKTKMELLILETQAQVCQALAQVDGGANFSVDRWERKEGGGGISCVLQDGCVFEKAGVSISVVHGNLSEEAAKQMRSRGKVLKTKDGKLPFCAMGVSSVIHPKNPHAPTIHFNYRYFEVEEADGNKQWWFGGGCDLTPTYLNQEDAVHFHRTLKEACDQHGPDLYPKFKKWCDDYFFIAHRGERRGIGGIFFDDLDSPSKEEVFRFVQSCARAVVPSYIPLVKKHCDDSFTPQEKLWQQLRRGRYVEFNLLYDRGTKFGLFTPGSRIESILMSLPLTARWEYMHSPSENSKEAEILEVLRHPRDWVR
For the molecule B1, the Km was found to be 0.76 µM in data set [3], 6.8 µM in data set [4] and 0.68 µM in data set [5].

The values above are taken from ChEMBL document CHEMBL1671804, “Normal and abnormal heme biosynthesis. Part 7. Synthesis and metabolism of coproporphyrinogen-III analogues with acetate or butyrate side chains on rings C and D. Development of a modified model for the active site of coproporphyrinogen oxidase” (Bioorg Med Chem, 2011).
